Assay results from PMC9412104, “Biochemical and Structural Insights on the Poplar Tau Glutathione Transferase GSTU19 and 20 Paralogs Binding Flavonoids” (Frontiers in Molecular Biosciences, 2022).

Legend:
[1] = molecular target: Populus trichocarpa tau glutathione transferase GSTU19 (PtGSTU19) (Populus trichocarpa); assay: SEC-MALS; purified untagged recombinant protein; conditions not told in the text shown (Supplementary Figure S3B)
[2] = molecular target: Populus trichocarpa tau glutathione transferase GSTU20 (PtGSTU20) (Populus trichocarpa); assay: as above
[3] = system: CCCC(=O)Oc1ccc([N+](=O)[O-])cc1; assay: purified protein, by the assay type; conditions: pH 8.0
CCCCCC(O)C=CC=O = assay: purified protein, by the assay type; conditions: pH 8.0; 25.0 °C
S=C=NCCc1ccccc1 = assay: purified protein, by the assay type; conditions: pH 8.0; 25.0 °C
S=C=NCc1ccccc1 = assay: purified protein, by the assay type; conditions: pH 8.0
[4] = system: CCCC(=O)Oc1ccc([N+](=O)[O-])cc1; assay: GSH-conjugation activity toward model substrates, variant; format: biochemical, Populus trichocarpa; conditions: mean ± S.D., n = 3, pH 8.0
Experimental: Peroxidase activity toward hydroperoxides was measured using an NADPH coupled spectrophotometric assay ([Pégeot et al., 2014]).
The measured velocities were corrected by subtracting the rate of the spontaneous nonenzymatic reaction, and three independent experiments were performed at each substrate concentration.

[5] = other: PtGSTU19 Y160A, fixed saturating GSH
[6] = other: PtGSTU19 Y160C, fixed saturating GSH
[7] = other: PtGSTU19 Y160F, fixed saturating GSH
[8] = other: line printed as PtGSTU19 C160Y in Table S4, fixed saturating GSH

Sequence of PtGSTU19Y160C (Populus trichocarpa; Y160C) (chain, as listed by the source Y160C): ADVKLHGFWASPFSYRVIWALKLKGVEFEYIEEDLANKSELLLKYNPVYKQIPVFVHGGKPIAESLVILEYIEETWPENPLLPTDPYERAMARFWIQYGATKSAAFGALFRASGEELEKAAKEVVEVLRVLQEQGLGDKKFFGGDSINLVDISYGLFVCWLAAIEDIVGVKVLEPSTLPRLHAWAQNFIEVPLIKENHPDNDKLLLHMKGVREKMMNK
Sequence of PtGSTU20C160Y (Populus trichocarpa; C160Y) (chain, as listed by the source C160Y): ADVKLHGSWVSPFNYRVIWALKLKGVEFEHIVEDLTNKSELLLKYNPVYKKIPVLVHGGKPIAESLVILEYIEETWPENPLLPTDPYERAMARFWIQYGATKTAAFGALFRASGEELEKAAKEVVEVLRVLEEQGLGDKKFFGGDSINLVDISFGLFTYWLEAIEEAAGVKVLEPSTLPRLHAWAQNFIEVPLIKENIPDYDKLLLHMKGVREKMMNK
Sequence of PtGSTU19Y160A (Populus trichocarpa; Y160A) (chain, as listed by the source Y160A): as the sequence (chain, as listed by the source Y160C) above, with C159A counted along it
Sequence of PtGSTU19Y160F (Populus trichocarpa; Y160F) (chain, as listed by the source Y160F): as the sequence (chain, as listed by the source Y160C) above, with C159F counted along it
Sequence of PtGSTU19 (Populus trichocarpa) (chain, as listed by the source): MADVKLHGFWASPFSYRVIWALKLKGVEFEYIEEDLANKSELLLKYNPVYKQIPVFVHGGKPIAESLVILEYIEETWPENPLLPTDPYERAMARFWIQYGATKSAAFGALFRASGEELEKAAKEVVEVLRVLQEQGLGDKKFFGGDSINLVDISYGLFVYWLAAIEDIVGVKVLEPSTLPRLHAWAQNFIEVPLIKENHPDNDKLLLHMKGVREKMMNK
Sequence of PtGSTU20 (Populus trichocarpa) (chain, as listed by the source): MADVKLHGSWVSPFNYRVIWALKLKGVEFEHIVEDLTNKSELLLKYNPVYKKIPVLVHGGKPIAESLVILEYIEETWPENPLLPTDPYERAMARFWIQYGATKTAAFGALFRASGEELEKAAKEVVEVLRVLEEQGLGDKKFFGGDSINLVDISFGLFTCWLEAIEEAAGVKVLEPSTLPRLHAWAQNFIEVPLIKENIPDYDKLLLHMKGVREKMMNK

Q: For “Populus trichocarpa tau glutathione transferase GSTU19 (PtGSTU19) (enzyme)”, which stoichiometry N [1] is on record?
A: 2

Q: For “Populus trichocarpa tau glutathione transferase GSTU20 (PtGSTU20) (enzyme)”, which stoichiometry N [2] is on record?
A: 2

Q: With PtGSTU19 (Populus trichocarpa) as the substance, how does the Km [3] read?
A: 443.5 ± 31.1 µM

Q: And the kcat [3]?
A: 0.04 ± 0.001 s⁻¹

Q: What about the kcat/Km [3] of the same substance?
A: 100 ± 2 M⁻¹ s⁻¹

Q: And the Km (CCCCCC(O)C=CC=O)?
A: 56.4 ± 7.4 µM

Q: And the kcat (CCCCCC(O)C=CC=O)?
A: 0.11 s⁻¹

Q: And the kcat/Km (CCCCCC(O)C=CC=O)?
A: 2000 M⁻¹ s⁻¹

Q: And the Km (S=C=NCCc1ccccc1)?
A: 48.4 ± 2.5 µM

Q: And the kcat (S=C=NCCc1ccccc1)?
A: 3.8 s⁻¹

Q: And the kcat/Km (S=C=NCCc1ccccc1)?
A: 79000 M⁻¹ s⁻¹

Q: And the Km (S=C=NCc1ccccc1)?
A: 52.7 ± 3.6 µM

Q: What about the kcat (S=C=NCc1ccccc1) of the same substance?
A: 7 ± 0.1 s⁻¹

Q: What about the kcat/Km (S=C=NCc1ccccc1) of the same substance?
A: 132200 ± 200 M⁻¹ s⁻¹

Q: With “PtGSTU19Y160A (Populus trichocarpa; Y160A)” as the substance, how does the Km [4, 5] read?
A: 534.6 ± 68.1 µM

Q: And the kcat [4, 5]?
A: 0.050 ± 0.002 s⁻¹

Q: And the kcat/Km [4, 5]?
A: 0.090 ± 0.004 103M-1.s-1

Q: With “PtGSTU19Y160C (Populus trichocarpa; Y160C)” as the substance, how does the Km [4, 6] read?
A: 518.3 ± 57.6 µM

Q: And the kcat [4, 6]?
A: 0.050 ± 0.002 s⁻¹

Q: And the kcat/Km [4, 6]?
A: 0.100 ± 0.003 103M-1.s-1

Q: Which Km [4, 7] does the source give for “PtGSTU19Y160F (Populus trichocarpa; Y160F)” here?
A: 693.2 ± 63.8 µM

Q: And the kcat [4, 7]?
A: 0.050 ± 0.002 s⁻¹

Q: What about the kcat/Km [4, 7] of the same substance?
A: 0.080 ± 0.003 103M-1.s-1

Q: What does the source list for PtGSTU20 (Populus trichocarpa)?
A: Km [3]: 329.2 ± 28.1 µM; kcat [3]: 0.02 ± 0.001 s⁻¹; kcat/Km [3]: 60 ± 3 M⁻¹ s⁻¹; Km (CCCCCC(O)C=CC=O): 30.6 ± 3.5 µM; kcat (CCCCCC(O)C=CC=O): 0.11 s⁻¹; kcat/Km (CCCCCC(O)C=CC=O): 3600 M⁻¹ s⁻¹; Km (S=C=NCCc1ccccc1): 56.8 ± 4.1 µM; kcat (S=C=NCCc1ccccc1): 5.1 s⁻¹; kcat/Km (S=C=NCCc1ccccc1): 88900 M⁻¹ s⁻¹; Km (S=C=NCc1ccccc1): 149.6 ± 17.6 µM; kcat (S=C=NCc1ccccc1): 10.4 ± 0.3 s⁻¹; kcat/Km (S=C=NCc1ccccc1): 69800 ± 2200 M⁻¹ s⁻¹

Q: For “PtGSTU20C160Y (Populus trichocarpa; C160Y)”, which Km [4, 8] is on record?
A: 326.2 ± 67.6 µM

Q: What about the kcat [4, 8] of the same substance?
A: 0.020 ± 0.001 s⁻¹

Q: And the kcat/Km [4, 8]?
A: 0.060 ± 0.003 103M-1.s-1
